B1: Signal recognition particle subunit SRP54 (Homo sapiens), P61011 (parent)
chain: MVLADLGRKITSALRSLSNATIINEEVLNAMLKEVCTALLEADVNIKLVKQLRENVKSAIDLEEMASGLNKRKMIQHAVFKELVKLVDPGVKAWTPTKGKQNVIMFVGLQGSGKTTTCSKLAYYYQRKGWKTCLICADTFRAGAFDQLKQNATKARIPFYGSYTEMDPVIIASEGVEKFKNENFEIIIVDTSGRHKQEDSLFEEMLQVANAIQPDNIVYVMDASIGQACEAQAKAFKDKVDVASVIVTKLDGHAKGGGALSAVAATKSPIIFIGTGEHIDDFEPFKTQPFISKLLGMGDIEGLIDKVNELKLDDNEALIEKLKHGQFTLRDMYEQFQNIMKMGPFSQILGMIPGFGTDFMSKGNEQESMARLKKLMTIMDSMNDQELDSTDGAKVFSKQPGRIQRVARGSGVSTRDVQELLTQYTKFAQMVKKMGGIKGLFKGGDMSKNVSQSQMAKLNQQMAKMMDPRVLHHMGGMAGLQSMMRQFQQGAAGNMKGMMGFNNM
partner: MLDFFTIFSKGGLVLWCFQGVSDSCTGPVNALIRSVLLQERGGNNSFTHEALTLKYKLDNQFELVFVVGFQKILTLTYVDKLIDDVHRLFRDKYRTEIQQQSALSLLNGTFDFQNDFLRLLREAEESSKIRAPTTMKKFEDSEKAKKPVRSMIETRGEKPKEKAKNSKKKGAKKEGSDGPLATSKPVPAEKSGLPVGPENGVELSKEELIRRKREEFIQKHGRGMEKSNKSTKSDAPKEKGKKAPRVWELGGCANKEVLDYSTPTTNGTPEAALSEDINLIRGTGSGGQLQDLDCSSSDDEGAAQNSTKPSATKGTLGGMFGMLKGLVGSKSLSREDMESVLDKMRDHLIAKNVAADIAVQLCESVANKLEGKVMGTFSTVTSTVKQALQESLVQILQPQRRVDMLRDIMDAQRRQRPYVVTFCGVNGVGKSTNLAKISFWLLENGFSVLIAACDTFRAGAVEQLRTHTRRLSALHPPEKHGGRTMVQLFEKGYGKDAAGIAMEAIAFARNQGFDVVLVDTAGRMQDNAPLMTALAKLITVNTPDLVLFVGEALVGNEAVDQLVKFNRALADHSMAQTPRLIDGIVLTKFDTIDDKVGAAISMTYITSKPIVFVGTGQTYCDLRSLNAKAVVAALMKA
B2: Signal recognition particle subunit SRP54 (Saccharomyces cerevisiae), P20424 (parent)
chain: MVLADLGKRINSAVNNAISNTQDDFTTSVDVMLKGIVTALLESDVNIALVSKLRNNIRSQLLSENRSEKSTTNAQTKKLIQKTVFDELCKLVTCEGSEEKAFVPKKRKTNIIMFVGLQGSGKTTSCTKLAVYYSKRGFKVGLVCADTFRAGAFDQLKQNAIRARIPFYGSYTETDPAKVAEEGINKFKKEKFDIIIVDTSGRHHQEEELFQEMIEISNVIKPNQTIMVLDASIGQAAEQQSKAFKESSDFGAIILTKMDGHARGGGAISAVAATNTPIIFIGTGEHIHDLEKFSPKSFISKLLGIGDIESLFEQLQTVSNKEDAKATMENIQKGKFTLLDFKKQMQTIMKMGPLSNIAQMIPGMSNMMNQVGEEETSQKMKKMVYVLDSMTKEELESDGRMFIEEPTRMVRVAKGSGTSVFEVEMILMQQQMMARMAQTATQQQPGAPGANARMPGMPNMPGMPNMPGMPNMPGMPKVTPQMMQQAQQKLKQNPGLMQNMMNMFGGGMGGGMGGGMPDMNEMMKMMQDPQMQQMAKQFGMG
partner: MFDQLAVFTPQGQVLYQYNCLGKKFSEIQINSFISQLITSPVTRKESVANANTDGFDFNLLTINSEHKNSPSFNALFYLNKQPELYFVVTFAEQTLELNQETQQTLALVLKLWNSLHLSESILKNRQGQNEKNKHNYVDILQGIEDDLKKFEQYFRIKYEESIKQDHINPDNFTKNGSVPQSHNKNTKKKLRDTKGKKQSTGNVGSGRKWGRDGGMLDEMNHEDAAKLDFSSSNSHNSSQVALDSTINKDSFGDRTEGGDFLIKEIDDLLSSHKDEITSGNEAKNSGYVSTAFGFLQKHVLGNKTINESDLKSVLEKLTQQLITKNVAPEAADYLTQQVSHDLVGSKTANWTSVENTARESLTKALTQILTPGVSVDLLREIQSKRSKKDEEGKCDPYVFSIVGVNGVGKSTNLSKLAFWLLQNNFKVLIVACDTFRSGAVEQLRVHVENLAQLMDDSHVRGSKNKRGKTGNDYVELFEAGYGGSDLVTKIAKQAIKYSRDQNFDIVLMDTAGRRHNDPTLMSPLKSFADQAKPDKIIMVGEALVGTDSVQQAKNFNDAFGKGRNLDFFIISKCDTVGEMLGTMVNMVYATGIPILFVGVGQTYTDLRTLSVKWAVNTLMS

Variants of: B1
Conditions: with srpra_human SRPRA

| effect of a mutation on the interaction | Variant |
| --- | --- |
| decreasing interaction strength | T115A |
| disrupting interaction strength | G226E |

Variants of: B2
Conditions: with srpr_yeast SRP101, P32916

| effect of a mutation on the interaction | Variant |
| --- | --- |
| disrupting interaction strength | MVLADLGKRINSAVNNAISNTQDDFTTSVDVMLKGIVTALLESDVNIALVSKLRNNIRSQLLSENRSEKSTTNAQTKKLIQKTVFDELCKLVTCEGSEEKAFVPKKRKTNIIMFVGLQGSGKTTSCTKLAVYYSKRGFKVGLVCADTFRAGAFDQLKQNAIRARIPFYGSYTETDPAKVAEEGINKFKKEKFDIIIVDTSGRHHQEEELFQEMIEISNVIKPNQTIMVLDASIEQAAEQQSKAFKESSDFGAIILTKMDGHARGGGAISAVAATNTPIIFIGTGEHIHDLEKFSPKSFISKLLGIGDIESLFEQLQTVSNKEDAKATMENIQKGKFTLLDFKKQMQTIMKMGPLSNIAQMIPGMSNMMNQVGEEETSQKMKKMVYVLDSMTKEELESDGRMFIEEPTRMVRVAKGSGTSVFEVEMILMQQQMMARMAQTATQQQPGAPGANARMPGMPNMPGMPNMPGMPNMPGMPKVTPQMMQQAQQKLKQNPGLMQNMMNMFGGGMGGGMGGGMPDMNEMMKMMQDPQMQQMAKQFGMG [G234E] |

From IntAct's records for PubMed 33053321
